Positions count from the first letter of the chain named.
B1: CAR comprising scFv-1′ (SEQ ID NO: 62) (other)
chain: DIVLTQSPSSLSASVGDRATISCRASESVTILGSHLIHWYQQKPGQAPKLLIQLASNVQTGVPARFSGSGSGTDFTLTISSVEPEDVAVYYCLQSRTIPRTFGQGTKVEIKGSTSGSGKPGSGEGSTKGQIQLVQSGPELKKPGGSVKISCAASGYTFTSYDINWVRQAPGKGLEWVGWINTETREPAYAYDFRGRFTFSADTSKSTAYLQMNSLRAEDTAVYYCALDYSYAMDYWGQGTLVTVSS
notes: CAR on mRNA-electroporated human CD8+ T cells; Only the scFv is identified; not shown: rest of the CAR (hinge, transmembrane, cytoplasmic domains) not specified for this construct
B2: CAR comprising scFv-11′ (SEQ ID NO: 67) (other)
chain: B1 chain with E183N, R185G, E186N, A188T, Y191Q, D192G, R194T, S230T, A232G
notes: as for B1
B3: CAR comprising scFv-9′ (SEQ ID NO: 65) (other)
chain: DIVLTQSPSSLSASVGDRATISCRASESVSFLGINLIHWYQQKPGQAPKLLIYSASNLQSGVPARFSGSGSGTDFTLTISSVEPEDVAVYYCLQSKNFPRTFGQGTKVEIKGSTSGSGKPGSGEGSTKGQIQLVQSGPELKKPGGSVKISCAASGYTFTDYSINWVRQAPGKGLEWVGWINTETREPAYAYDFRGRFTFSADTSKSTAYLQMNSLRAEDTAVYYCALDYSYAMDYWGQGTLVTVSS
notes: as for B1
B4: CAR comprising scFv-8′ (SEQ ID NO: 64) (other)
chain: B3 chain with K96R, N97T, F98L
notes: as for B1
B5: CAR comprising scFv-4′ (SEQ ID NO: 63) (other)
chain: B1 chain with S160D, D162S, S230T, A232G
notes: as for B1
B6: CAR comprising scFv-10′ (SEQ ID NO: 66) (other)
chain: B1 chain with D162S, Y191Q, D192G, R194T, S230L, A232S, M233L, Y235F
notes: as for B1
B7: CAR comprising scFv-J2 (SEQ ID NO: 50) (other)
chain: DIVLTQSPASLAVSLGERATISCRASESVSILGSHLLHWYQQKPGQPPKLLIYLASNLQTGVPARFSGSGSGTDFTLTISSLEAEDVAVYYCLQSRTIPRTFGQGTKLEIKGSTSGSGKPGSGEGSTKGQIQLVQSGAEVKKPGASVKISCKASGYTFTDYSINWVRQAPGQGLEWMGWINTETREPAYAYDFRGRVTMTRDTSASTAYLQISSLKAEDTAVYFCALDYSYAMDYWGQGSLVTVSS
notes: as for B1
B8: CAR comprising scFv-J1 (SEQ ID NO: 49) (other)
chain: DIVMTQSPDSLSVSLGERATINCRASESVTILGSHLIHWYQQKPGQPPKLLIQLASNVQTGVPDRFSGSGSGTDFTLTISSLQAEDVAVYYCLQSRTIPRTFGGGTKVEIKGSTSGSGKPGSGEGSTKGQIQLVQSGAEVKKPGASVKISCKASGYTFTDYSINWVRQAPGQGLEWMGWINTETREPAYAYDFRGRVTMTRDTSASTAYLQISSLKAEDTAVYFCALDYSYAMDYWGQGSLVTVSS
notes: as for B1
B9: CAR comprising scFv-J3 (SEQ ID NO: 51) (other)
chain: B7 chain with E17K, S30T, L37I, L58V, I131V
notes: as for B1
B10: CAR comprising scFv-J5 (SEQ ID NO: 53) (other)
chain: DIVLTQSPASLAVSLGERATISCRASESVSILGSHYLAWYQQKPGQPPKLLIYLASNLQTGVPARFSGSGSGTDFTLTISSLEAEDVAVYYCQQSRTIPRTFGQGTKLEIKGSTSGSGKPGSGEGSTKGQIQLVQSGAEVKKPGESVKISCKASGYTFTDYSINWVRQAPGQGLKWMGWINTETREPAYAYDFRGRFAFSLDTSASTAYLQISSLKAEDTAVYFCALDYSYAMDYWGQGTLVTVSS
notes: as for B1
B11: CAR comprising scFv-CAS2 (C2) (SEQ ID NO: 61) (other)
chain: DIVLTQSPASLAVSPGQRATISCRASESVTILGSHLIHWYQQKPGQPPKLLIQLASNVQTGVPARFSGSGSRTDFTLTISSLEPEDVAVYYCLQSRTIPRTFGQGTKVEIKGSTSGSGKPGSGEGSTKGQITLKESGPTLVKPTQTLTLSCKASGYTFTDYSINWVRRAPGKGLEWMGWINTETREPAYAYDFRGRFVFSLDTSVSMAYLQISSLKAEDTAVYYCALDYSYAMDYWGQGTLVTVSS
notes: as for B1
B12: CAR comprising scFv-Y31 (SEQ ID NO: 56) (other)
chain: B1 chain with S160D, D162S, R167K
notes: as for B1
B13: CAR comprising scFv-Yi1 (SEQ ID NO: 54) (other)
chain: B1 chain with E85D, Q104G, V108L, S160D, D162S, R167K, A201L
notes: CAR on mRNA-electroporated human CD8+ T cells; not shown: rest of the CAR (hinge, transmembrane, cytoplasmic domains) not specified for this construct
B14: CAR comprising scFv-Y34 (SEQ ID NO: 59) (other)
chain: B1 chain with Q135E, P138A, L140V, I149V, A152K, S160D, D162S, T198A, F199I, D202E
notes: as for B1
B15: CAR comprising scFv-Y33 (SEQ ID NO: 58) (other)
chain: B1 chain with Q135E, P138A, L140V, S160D, D162S, R167K, A201L
notes: as for B1
B16: CAR comprising scFv-Yi2 (SEQ ID NO: 55) (other)
chain: DIQLTQSPSSLSASVGDRVTITCRASQSVTILGSHLIHWYQQKPGKAPKLLIQLASNVQTGVPSRFSGSGSGTDFTLTISSLQPEDVATYYCLQSRTIPRTFGQGTKLEIKGSTSGSGKPGSGEGSTKGQVQLVQSGGGLVQPGRSVKLSCAASGYTFTDYSINWVRQAPGKGLEWVGWINTETREPAYAYDFRGRFTISRDTSKNTAYLQMNSLRAEDTAVYYCARDYSYAMDYWGQGTLVTVSS
notes: as for B1
B17: CAR comprising scFv-J4 (SEQ ID NO: 52) (other)
chain: B8 chain with A145E, E175K, V197F, T198A, M199F, T200S, R201L, S240T
notes: as for B1

target: T1, phycoerythrin (PE)-conjugated BCMA (Recombinant Human TNFRSF17 protein, Fc/His-tagged, R-PE labeled); Creative … (human, UniProt Q02223 1-54, R-PE labeled); assay: flow cytometry; CAR T cells stained with BCMA-PE, 3 days after electroporation
T1 construct: Bought reagent; also called BCMA-PE; not shown: Fc/His tag of the bought reagent
T1 sequence: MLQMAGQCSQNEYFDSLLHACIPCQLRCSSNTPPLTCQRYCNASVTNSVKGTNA
Procedure: (§1) CAR T cells obtained from the above-described process were tested for viability, CAR protein expression, BCMA binding, and cytotoxicity, i.e., the ability to kill BCMA+ myeloma (tumor) cells. Viability, CAR expression, and BCMA binding were determined by flow cytometry on a GUAVA® […]® 12HT Flow cytometer (EMD Millipore). To test viability, a sample of the CAR T cells was mixed with propidium iodide and run on the flow cytometer with electronic gating on fluorescence in the near infrared channel. To test CAR protein expression and BCMA binding, a sample of the CAR T cells was incubated with 0.4 ug/mL of phycoerythrin (PE)-conjugated BCMA (Recombinant Human TNFRSF17 protein, Fc/His-tagged, R-PE labeled; Creative Biomart, Shirley, N.Y.). CAR expression was assessed on the flow cytometer with electronic gating on fluorescence in the yellow channel to detect presence or absence of emission from BCMA-PE on CAR-positive and CAR-negative cells. BCMA binding was determined by measuring the intensity of fluorescence in the yellow channel to determine the relative quantity of BCMA-PE bound to labelled CAR-positive cells. For the viability, expression, and BCMA binding assays, CD8+ T cells electroporated without mRNA (CAR-negative T Cells) were tested as a parallel control.
For each of the mRNA constructs, CAR T cells were prepared by transfection into human CD8+ cells, as described in Example 1. The CAR T cells made from each mRNA construct were then tested 3 days after electroporation for BCMA binding and tumor killing, as described in Example 1.

| Binder | BCMA Binding (arbitrary units) |
| --- | --- |
| B1 | 189 arbitrary units |
| B2 | 310 arbitrary units |
| B3 | 173 arbitrary units |
| B4 | 496 arbitrary units |
| B5 | 439 arbitrary units |
| B6 | 269 arbitrary units |

target: T1, phycoerythrin (PE)-conjugated BCMA …; assay: as above; remark: another data set of the same source
Procedure: as §1
Numerous CAR-encoding mRNA constructs were prepared using the mRNA construct of SEQ ID: 29 as a starting point (which encodes a CAR of sequence SEQ ID: 19 and comprises the scFv of sequence SEQ ID: 48). These constructs encoded the same or substantially the same amino acid residues in the scFv complementary-determining regions (CDRs) but varied with respect to the amino acid residues in the scFv framework regions. In making these variations, the experimenter's intent was to humanize the scFv framework regions without reducing BCMA-binding and tumor-killing properties of CAR T cells that express the CAR. For each of the mRNA constructs, CAR T cells were prepared by transfection into human CD8+ cells, substantially as described in Example 1. The CAR T cells made from each mRNA construct were then tested 3 days after electroporation for BCMA binding and/or tumor killing, as substantially described in Example 1.

| Binder | BCMA Binding (relative to SEQ ID: 48) | BCMA Binding | BCMA Binding (relative to SEQ ID: 54) |
| --- | --- | --- | --- |
| B7 | 51 relative to SEQ ID: 48 = 100 | – | – |
| B8 | 76 relative to SEQ ID: 48 = 100 | – | – |
| B9 | 54 relative to SEQ ID: 48 = 100 | – | – |
| B10 | 103 relative to SEQ ID: 48 = 100 | – | – |
| B11 | – | 34 relative (SEQ ID: 48 = 100) | – |
| B12 | – | – | 58 relative to SEQ ID: 54 = 100 |
| B13 | 141 relative to SEQ ID: 48 = 100 | – | 100 relative to SEQ ID: 54 = 100 |
| B14 | – | – | 79 relative to SEQ ID: 54 = 100 |
| B15 | – | – | 40 relative to SEQ ID: 54 = 100 |
| B16 | 12 relative to SEQ ID: 48 = 100 | – | – |
| B17 | 82 relative to SEQ ID: 48 = 100 | – | – |

target: T2, human BCMA on cells (human, UniProt Q02223 1-184); assay: cell-based or functional assay
T2 sequence: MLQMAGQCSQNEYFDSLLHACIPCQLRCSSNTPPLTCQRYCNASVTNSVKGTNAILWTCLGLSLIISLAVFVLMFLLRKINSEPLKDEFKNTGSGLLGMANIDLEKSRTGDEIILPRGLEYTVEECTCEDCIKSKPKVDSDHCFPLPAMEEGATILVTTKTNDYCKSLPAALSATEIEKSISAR

| Binder | Killing (% killed), Effector:target ratio of 1:2 |
| --- | --- |
| B1 | 3% |
| B2 | 0% |
| B3 | 86% |
| B4 | 26% |
| B5 | 78% |
| B6 | 81% |

Reference: patent publication US20220089678A1 (CARTESIAN THERAPEUTICS, published 2022)
